Results taken from patent US20200317779A1.

Columns and labels:
[1] = target: recombinant cynomolgus monkey CD3ε/δ heterodimer (cynomolgus monkey) (UniProt Q95LI5); assay: ELISA, coated CD3ε/δ
[2] = target: recombinant human CD3ε/δ heterodimer (human) (UniProt P07766); assay: ELISA, coated CD3ε/δ
[3] = target: recombinant cynomolgus monkey CD3ε/δ heterodimer (cynomolgus monkey) (UniProt Q95LI5); assay: BLI (Octet), antigen on anti-Penta His sensor, antibody 50 nM
[4] = target: recombinant human CD3ε/δ heterodimer (human) (UniProt P07766); assay: as above

Sequence of recombinant human CD3ε/δ heterodimer (human) (P07766 23-126, stated change not applied, chain 1 of 2): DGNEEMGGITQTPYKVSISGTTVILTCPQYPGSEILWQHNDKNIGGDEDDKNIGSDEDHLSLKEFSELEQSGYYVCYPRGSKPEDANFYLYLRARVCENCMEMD
Sequence of recombinant human CD3ε/δ heterodimer (human) (P04234 22-105, stated change not applied, chain 2 of 2, further chain): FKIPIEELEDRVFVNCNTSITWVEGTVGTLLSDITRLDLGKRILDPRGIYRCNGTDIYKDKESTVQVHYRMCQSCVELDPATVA
Sequence of recombinant cynomolgus monkey CD3ε/δ heterodimer (cynomolgus monkey) (Q95LI5 22-117, stated change not applied, chain 1 of 2): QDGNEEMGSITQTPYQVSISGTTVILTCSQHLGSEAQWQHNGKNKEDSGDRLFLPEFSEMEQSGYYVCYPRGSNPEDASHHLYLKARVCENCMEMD
Sequence of recombinant cynomolgus monkey CD3ε/δ heterodimer (cynomolgus monkey) (Q95LI8 22-105, stated change not applied, chain 2 of 2, further chain): as the sequence (P04234 22-105, stated change not applied, chain 2 of 2, further chain) above, with I5V, N15K, I20V, S32T, D33N, I34N, T64A, S74N, V83L counted along it

Row | Binder | Absorbance (450 nm) [1] | Absorbance (450 nm) [2] | Kd [3] [nM] | koff [3] [s⁻¹] | kon [3] [M⁻¹ s⁻¹] | Kd [4] [nM] | koff [4] [s⁻¹] | kon [4] [M⁻¹ s⁻¹]
1 | C07 (antibody, human IgG1, lambda, L234A L235A, V domains shown) VH: EVQLVESGGGLVQPGGSLKLSCAASGFTFNTYAMNWVRQASGKGLEWVGRIRSKYNNYATYYADSVKDRFTISRDDSQSTAYLQMNSLKTEDTAVYYCVRHGNFGNSYVSWFAYWGQGTLVTVSS VL: QAVVTQEPSLTVSPGGTVTLTCRSSTGAVTTSNYANWFQQKPGQAPRGLIGGTNKRAPWTPARFSGSLLGGKAALTLSGAQPEDEAEYYCALWYSNLWVFGGGTKLTVLG | 2.6 | 0.96 | 27.5 | 0.00535 | 194000 | 23 | 0.00349 | 152000
2 | C16 (antibody, human IgG1, lambda, L234A L235A, V domains shown) VH: EVQLVESGGGLVQPGGSLKLSCAASGFTFNTYAMNWVRQASGKGLEWVGRIRSKYNNYATYYADSVKDRFTISRDDSQSTAYLQMNSLKTEDTAVYYCVRHGNFGNSYVSWFAYWGQGTLVTVSS VL: QAVVTQEPSLTVSPGGTVTLTCRSSTGAVTTSNYANWVQQKPGQAPRGLIGGTNKRAPWTPARFSGSLLGDKAALTLSGAQPEDEAEYYCALWYSNLWVFGGGTKLTVLG | 2.8 | 2.37 | 0.888 | 0.000341 | 384000 | 0.419 | 0.000112 | 268000
3 | C15 (antibody, human IgG1, lambda, L234A L235A, V domains shown) VH: EVQLVESGGGLVQPGGSLKLSCAASGFTFNTYAMNWVRQASGKGLEWVGRIRSKYNNYATYYADSVKDRFTISRDDSQSTAYLQMNSLKTEDTAVYYCVRHGNFGNSYVSWFAYWGQGTLVTVSS VL: QAVVTQEPSLTVSPGGTVTLTCRSSTGAVTTSNYANWVQQKPGQAPRGLIGGTNKRAPWTPARFSGSLLGGKAALTLSGAQPEDEAEYYCALWYSNLWVFGGGTKLTVLG | 2.81 | 2.45 | 0.653 | 0.000343 | 525000 | 0.43 | 0.000162 | 376000
4 | D07 (antibody, human IgG1, lambda, L234A L235A, V domains shown) VH: EVQLVESGGGLVQPGGSLKLSCAASGFTFNTYAMNWVRQASGKGLEWVGRIRSKYNNYATYYADSVKDRFTISRDDSQSTLYLQMNSLKTEDTAVYYCVRHGNFGNSYVSWFAYWGQGTLVTVSS VL: QAVVTQEPSLTVSPGGTVTLTCRSSTGAVTTSNYANWFQQKPGQAPRGLIGGTNKRAPWTPARFSGSLLGGKAALTLSGAQPEDEAEYYCALWYSNLWVFGGGTKLTVLG | 2.39 | 1.17 | 20 | 0.00284 | 143000 | 19 | 0.00214 | 113000
5 | Mouse human chimeric SP34 IgG1 antibody (antibody, V domains shown) VH: EVQLVESGGGLVQPKGSLKLSCAASGFTFNTYAMNWVRQAPGKGLEWVARIRSKYNNYATYYADSVKDRFTISRDDSQSILYLQMNNLKTEDTAMYYCVRHGNFGNSYVSWFAYWGQGTLVTVSS VL: QAVVTQESALTTSPGETVTLTCRSSTGAVTTSNYANWVQEKPDHLFTGLIGGTNKRAPGVPARFSGSLIGDKAALTITGAQTEDEAIYFCALWYSNLWVFGGGTKLTVLG | – | – | 0.14 | 5.3e-05 | 378000 | 0.229 | 6.01e-05 | 262000
6 | C08 (antibody, human IgG1, lambda, L234A L235A, V domains shown) VH: EVQLVESGGGLVQPGGSLKLSCAASGFTFNTYAMNWVRQASGKGLEWVGRIRSKYNNYATYYADSVKDRFTISRDDSQSTAYLQMNSLKTEDTAVYYCVRHGNFGNSYVSWFAYWGQGTLVTVSS VL: QAVVTQEPSLTVSPGGTVTLTCRSSTGAVTTSNYANWFQQKPGQAPRGLIGGTNKRAPWTPARFSGSLLGDKAALTLSGAQPEDEAEYYCALWYSNLWVFGGGTKLTVLG | 2.18 | 0.446 | 35.6 | 0.00589 | 166000 | 29.4 | 0.00317 | 108000
